The source of these data is the Immune Epitope Database (IEDB).

The target in one assay is HLA-A*02:03. Description: IEDB peptide-MHC binding, purified MHC/competitive/radioactivity; filed as Kd, often an IC50 or EC50 that approximates it; ≥ and ≤ were set here for values at or beyond the usual limits of such assays.
A further assay has as its target HLA-A*02:06. The assay is described as above.
The target of a further assay is HLA-A*02:02. The assay is described as above.
In another assay the target is HLA-A*02:01. Description: IEDB peptide-MHC binding, purified MHC/direct/fluorescence; filed as Kd, often an IC50 or EC50 that approximates it; ≥ and ≤ were set here for values at or beyond the usual limits of such assays.
The target of a further assay is HLA-A*01:01. Briefly: IEDB peptide-MHC binding, purified MHC/competitive/radioactivity; filed as Kd, often an IC50 or EC50 that approximates it; ≥ and ≤ were set here for values at or beyond the usual limits of such assays.
The target of a further assay is HLA-A*30:02. The assay is described as above.
Another assay addresses HLA-B*58:01. Briefly: IEDB peptide-MHC binding, purified MHC/direct/fluorescence; filed as Kd, often an IC50 or EC50 that approximates it; ≥ and ≤ were set here for values at or beyond the usual limits of such assays. The settings on record: source organism: Human immunodeficiency virus 1.
For another assay, the target named is HLA-A*11:01. The assay is described as above. Conditions: source organism: Yellow fever virus 17D.
Setting [1] is: source organism: Vaccinia virus WR.
[2] abbreviates: source organism: SARS coronavirus Tor2.
The mark [3] stands for this setting: source organism: Dengue virus 1 Brazil/97-11/1997.
Where [4] appears, read: source organism: Dengue virus 2 Jamaica/1409/1983.
Where [5] appears, read: source organism: Dengue virus 4 Philippines/H241/1956.
Where [6] appears, read: source organism: Mammarenavirus guanaritoense.

As to LAISAVYFKA, the dissociation constant (Kd) with HLA-A*02:03 (setting [1]) amounted to 363 nM; in the assay with HLA-A*02:06 (setting [1]), 659 nM; with HLA-A*02:02 (setting [1]), 1430 nM.
Consider LLLSICLGSL, for which the Kd with HLA-A*02:03 (setting [2]) amounted to 104 nM; with HLA-A*02:06 (setting [2]) it was 258 nM; with HLA-A*02:02 (setting [2]) it was 20.1 nM.
In turn, LLMEGLKLL registered an equilibrium dissociation constant (Kd) with HLA-A*02:01 (source organism: Mammarenavirus lassaense) of no more than 1 nM.
Consider LQDIVNEHDI, for which the Kd is no less than 38200 nM in the assay with HLA-A*02:03 (setting [1]), 10900 nM with HLA-A*02:06 (setting [1]) and 7630 nM with HLA-A*02:02 (setting [1]).
The like results for LQWDDNIPEL were, in that order, 712 nM, 34.4 nM and 180 nM.
In the case of LTEFQPHQL, the Kd with HLA-A*01:01 (setting [3]) is 8760 nM.
In the case of LTHFNNNENV, the Kd came to 7270 nM with HLA-A*02:03 (setting [1]), 996 nM with HLA-A*02:06 (setting [1]) and 907 nM in the assay with HLA-A*02:02 (setting [1]).
The like results for MAAAKTPVI were, in that order, 209 nM, 672 nM and 259 nM.
The matching figures for MTSTRTIILV: 920 nM, 217 nM and 1980 nM.
Take MVTDKTAYI: the dissociation constant (Kd) with HLA-A*02:03 (setting [1]) turned out to be 1.99 nM; with HLA-A*02:06 (setting [1]), 25.2 nM; in the assay with HLA-A*02:02 (setting [1]), 16.8 nM.
The matching figures for NASKTINAL: 708 nM, 6100 nM and 117 nM.
Turning to NISFKSINKV, the Kd is 1530 nM with HLA-A*02:03 (setting [1]), 11700 nM with HLA-A*02:06 (setting [1]) and no less than 20300 nM in the assay with HLA-A*02:02 (setting [1]).
As to NLERETGLSA, the Kd with HLA-A*02:03 (setting [1]) stood at 1660 nM; with HLA-A*02:06 (setting [1]), 15100 nM; with HLA-A*02:02 (setting [1]), 17600 nM.
The matching figures for NVISKIYTL: 96.7 nM, 1.75 nM and 147 nM.
The like results for NVTGFMEEEI were, in that order, 5140 nM, 17700 nM and 10300 nM.
Turning to QLSKSEFNTY, the values for the dissociation constant Kd with HLA-A*01:01 (setting [3]) and in the assay with HLA-A*30:02 (setting [3]) were 1390 nM and 71.1 nM, respectively.
Consider QTGINNVQSL, for which the Kd is no less than 24400 nM with HLA-A*02:03 (setting [1]), no less than 54000 nM with HLA-A*02:06 (setting [1]) and no less than 20200 nM with HLA-A*02:02 (setting [1]).
Regarding RINLLVQYGA, the figures for the Kd with HLA-A*02:03 (setting [1]), with HLA-A*02:06 (setting [1]) and with HLA-A*02:02 (setting [1]) were 15300 nM, 7650 nM and 10300 nM, respectively.
For the sequence RNPQKENDQY, the Kd with HLA-A*30:02 (source organism: Dengue virus 3 Martinique/1243/1999) was no less than 69700 nM.
Regarding RQVSVKLLI, the Kd in the assay with HLA-A*02:03 (setting [1]) came out at 254 nM; with HLA-A*02:06 (setting [1]), 0.135 nM; with HLA-A*02:02 (setting [1]), 17900 nM.
As to RTPQDNQLAY, the figures for the Kd with HLA-A*01:01 (setting [3]) and in the assay with HLA-A*30:02 (setting [3]) were 703 nM and 267 nM, respectively.
As to SIYIAVANCV, the Kd with HLA-A*02:03 (setting [1]) was 62.7 nM; with HLA-A*02:06 (setting [1]), 1000 nM; in the assay with HLA-A*02:02 (setting [1]), 534 nM.
In the case of SLETVKMGA, the Kd in the assay with HLA-A*02:03 (setting [1]) was 547 nM; in the assay with HLA-A*02:06 (setting [1]), no less than 23400 nM; in the assay with HLA-A*02:02 (setting [1]) it was 11200 nM.
In the case of SLIPDATHL, in the assay with HLA-A*02:01 (source organism: Lassa virus Josiah), the Kd was 18.1 nM.
In the case of SLVSKHWEL, the Kd in the assay with HLA-A*02:03 (setting [1]) stood at 36 nM; in the assay with HLA-A*02:06 (setting [1]), 34.9 nM; with HLA-A*02:02 (setting [1]) it was 1.16 nM.
On to SRKTFDSEY, for which, in the assay with HLA-A*30:02 (setting [4]), the Kd stood at 3810 nM.
On to STESHNQTF, for which the Kd with HLA-A*01:01 (setting [4]) is 8210 nM.
Consider STFNMWREIL, for which the values for the equilibrium dissociation constant (Kd) with HLA-A*02:03 (setting [1]), in the assay with HLA-A*02:06 (setting [1]) and with HLA-A*02:02 (setting [1]) were 907 nM, 3360 nM and 3120 nM, respectively.
The like results for STTENAAYQV were, in that order, 4700 nM, 101 nM and 928 nM.
TAVPWNASW gave a Kd with HLA-B*58:01 of 13 nM.
Consider TLLGLILFVL, for which the results for the Kd with HLA-A*02:03 (setting [1]), with HLA-A*02:06 (setting [1]) and in the assay with HLA-A*02:02 (setting [1]) were 796 nM, 672 nM and 169 nM, respectively.
For TTDISEMGA, the Kd with HLA-A*01:01 (setting [5]) was 188 nM.
On to TWHYDEDNPY, for which the Kd in the assay with HLA-A*30:02 (setting [3]) amounted to 3070 nM.
As to VAGGLLLAAY, the Kd with HLA-A*30:02 (setting [5]) turned out to be 78.7 nM.
Regarding VAIDLDPVVY, the figures for the equilibrium dissociation constant (Kd) with HLA-A*01:01 (setting [3]) and with HLA-A*30:02 (setting [3]) were no less than 33400 nM and 825 nM, respectively.
Take VIRHVDGKIL: the Kd was no less than 33400 nM in the assay with HLA-A*02:03 (setting [1]), no less than 69800 nM with HLA-A*02:06 (setting [1]) and no less than 70000 nM in the assay with HLA-A*02:02 (setting [1]).
In the case of VLWDIPTPK, the Kd in the assay with HLA-A*11:01 stood at 4.4 nM.
As to WSAIFFTTSL, the values for the dissociation constant (Kd) with HLA-A*02:03 (setting [6]), with HLA-A*02:06 (setting [6]) and in the assay with HLA-A*02:02 (setting [6]) were 6990 nM, 1400 nM and 2000 nM, respectively.
Turning to YVDFREYEYD, in the assay with HLA-A*01:01 (source organism: Homo sapiens), the Kd worked out at 90 nM.
